Patent US11278600B2, “Human alpha-galactosidase variants” (Codexis, Inc., priority 2014, dated 2022)

B1: 662 (protein)
chain: LDNGLARTPTMGWLHWERFMCNLDCQEEPDSCISEKLFMEMAERMVTEGWKDAGYEYLCIDDCWMAPQRDSEGRLQADPQRFPHGIRQLANHVHSKGLKLGIYADVGNKTCAGFPGSFGYYDIDAQTFADWGVDLLKFDGCYCDSLENLADGYKHMSLALNRTGRPIVYSCEWPLYMWPFQKPNYTEIRQYCNHWRNFADIDDSWASIKSILDWTSRNQERIVDVAGPGGWNDPDMLIIGNFGLSWDQQVTQMALWAIMAAPLFMSNDLRAISPQAKALLQDKDVIAINQDPLGKQGYQLRKGDNFEVWERPLSGDAWAVAIINRQEIGGPRSYTIPVASLGKGVACNPACFITQLLPVKRQLGFYNWTSRLKSHINPTGTVLLQLENTMQTSLKDLL
modifications: Synthetic Polypeptide sequence of Variant No. 662 of mature Human GLA
B2: 667 (protein)
chain: LDNGLARTPTMGWLHWERFMCNLDCQEEPGSCISEKLFMEMAERMVTEGWKDAGYEYLCIDDCWMAPQRDSEGRLQADPQRFPHGIRQLANHVHSKGLKLGIYADVGNKTCAGFPGSFGYYDIDAQTFADWGVDLLKFDGCYCDSLENLADGYKHMSLALNRTGRPIVYSCEWPLYMWPFQKPNYTEIRQYCNHWRNFADIDDSWASIKSILDWTSRNQERIVDVAGPGGWNDPDMLVIGNFGLSWDQQVTQMALWAIMAAPLFMSNDLRAISPQAKALLQDKDVIAINQDPLGKQGYQLRKGDNFEVWERPLSGDAWAVAIINRQEIGGPRSYTIPVASLGKGVACNPACFITQLLPVKRQLGFYNWTSRLKSHINPTGTVLLQLENTMQTSLKDLL
modifications: Synthetic Polypeptide sequence of Variant No. 667 of mature Human GLA
B3: 665 (protein)
chain: LDNGLACTPTMGWLHWERFMCNLDCQEEPDSCISEKLFMEMAERMVTEGWKDAGYEYLCIDDCWMAPQRDSEGRLQADPQRFPHGIRQLANHVHSKGLKLGIYADVGNKTCAGFPGSFGYYDIDAQTFADWGVDLLKFDGCYCDSLENLADGYKHMSLALNRTGRPIVYSCEWPLYMWPFQKPNYTEIRQYCNHWRNFADIDDSWASIKSILDWTSRNQERIVDVAGPGGWNDPDMLVIGNFGLSWDQQVTQMALWAIMAAPLFMSNDLRAISPQAKALLQDKDVIAINQDPLGKQGYQLRKGDNFEVWERPLSGDAWAVAIINRQEIGGPRSYTIPVASLGKGVACNPACFITQLLPVKRQLGFYNATSRLKSHINPTGTVLLQLENTMQTSLKDLL
modifications: Synthetic Polypeptide sequence of Variant No. 665 of mature Human GLA
B4: 664 (protein)
chain: LDNGLARTPPMGWLHWERFMCNLDCQEEPDSCISEKLFMEMAERMVTEGWKDAGYEYLCIDDCWMAPQRDSEGRLQADPQRFPHGIRQLANHVHSKGLKLGIYADVGNKTCAGFPGSFGYYDIDAQTFADWGVDLLKFDGCYCDSLENLADGYKHMSLALNRTGRPIVYSCEWPLYMWPFQKPNYTEIRQYCNHWRNFADIDDSWASIKSILDWTSRNQERIVDVAGPGGWNDPDMLVIGNFGLSWDQQVTHRELWAIMAGPLFMSNDLRAISPQAKALLQDKDVIAINQDPLGKQGYQLRKGDNFEVWERPLSGDAWAVAIINRQEIGGPRSYTIPVASLGKGVACNPACFITQLLPVKRQLGFYNWTSRLKSHINPTGTVLLQLENTMQTSLKDLL
modifications: Synthetic Polypeptide sequence of Variant No. 664 of mature Human GLA
B5: 668 (protein)
chain: LDNGLARTPTMGWLHWERFMCNLDCQEEPDSCISEKLFEEMAERMVTEGWKDAGYEYLCIDDCWMAPQRDSEGRLQADPQRFPHGIRQLANHVHSKGLKLGIYADVGNKTCAGFPGSFGYYDIDAQTFADWGVDLLKFDGCYCDSLENLADGYKHMSLALNRTGRPIVYSCEWPLYMWPFQKPNYTEIRQYCNHWRNFADIDDSWASIKSILDWTSRNQERIVDVAGPGGWNDPDMLVIGNFGLSWDQQVTQMALWAIMAAPLFMSNDLRAISPQAKALLQDKDVIAINQDPLGKQGYQLRKGDNFEVWERPLSGDAWAVAIINRQEIGGPRSYTIPVASLGKGVACNPACFITQLLPVKRQLGFYNWTSRLKSHINPTGTVLLQLENTMQTSLKDLL
modifications: Synthetic Polypeptide sequence of Variant No. 668 of mature Human GLA
B6: 663 (protein)
chain: LDNGLARTPTMGWLHWERFMCNLDCQEEPDSCISEKLFMEMADRMVTEGWKDAGYEYLCIDDCWMAPQRDSEGRLQADPQRFPHGIRQLANHVHSKGLKLGIYADVGNKTCAGFPGSFGYYDIDAQTFADWGVDLLKFDGCYCDSLENLADGYKHMSLALNRTGRPIVYSCEWPLYMWPFQKPNYTEIRQYCNHWRNFADIDDSWASIKSILDWTSRNQERIVDVAGPGGWNDPDMLVIGNFGLSWDQQVTQMALWAIMAGPLFMSNDLRAISPQAKALLQDKDVIAINQDPLGKQGYQLRKGDNFEVWERPLSGDAWAVAIINRQEIGGPRSYTIPVASLGKGVACNPACFITQLLPVKRQLGFYNATSRLKSHINPTGTVLLQLENTMQTSLKDLL
modifications: Synthetic Polypeptide sequence of Variant No. 663 of mature Human GLA
B7: 666 (protein)
chain: LDNGLARTPTMGWLHWERFMCNLDCQEEPDSCISEKLFMEMAERMVTEGWKDAGYEYLCIDDCWMAPQRDSEGRLQADPQRFPHGIRQLANHVHSKGLKLGIYADVGNKTCAGFPGSFGYYDIDAQTFADWGVDLLKFDGCYCDSLENLADGYKHMSLALNRTGRPIVYSCEWPLYMWPFQKPNYTEIRQYCNHWRNFADIDDSWASIKSILDWTSRNQERIVDVAGLGGWNDPDMLVIGNFGLSWDQQVTQMALWAIMAAPLFMSNDLRAISPQAKALLQDKDVIAINQDPLGKQGYQLRKGDNFEVWERPLSGDAWAVAIINRQEIGGPRSYTIPVASLGKGVACNPACFITQLLPVKRQLGFYNWTSRLKSHINPTGTVLLQLENTMQTSLKDLL
modifications: Synthetic Polypeptide sequence of Variant No. 666 of mature Human GLA
B8: 639 (protein)
chain: LDNGLARTPTMGWLHWERFMCNLDCQEEPDSCISEKLFEEMAERMVTEGWKDAGYEYLCIDDCWMAPQRDSEGRLQADPQRFPHGIRQLANHVHSKGLKLGIYADVGNKTCAGFPGSFGYYDIDAQTFADWGVDLLKFDGCYCDSLENLADGYKHMSLALNRTGRPIVYSCEWPLYMWPFQKPNYTEIRQYCNHWRNFADIDDSWASIKSILDWTSRNQERIVDVAGPGGWNDPDMLVIGNFGLSWYQQVTQMALWAIMAAPLFMSNDLRAISPQAKALLQDKDVIAINQDPLGKQGYQLRKGDNFEVWERPLSGDAWAVAIINRQEIGGPRSYTIPVASLGKGVACNPACFITQLLPVKRQLGFYNWTSRLKSHINPTGTVLLQLENTMQTSLKDLL
modifications: Synthetic Polypeptide sequence of Variant No. 639 of mature Human GLA

Assays:
Assay type in all cases: biochemical
[1] = HTP-analysis of supernatants pretreated with acid (MUGal hydrolysis); details: activity of the variant/activity of Rd7BB (SEQ ID NO: 44); challenge at pH 3.5
How it was run: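 Supernatants from INVSc1 yeast secreting GLA variants were challenged at 37° C. for 1-3 h in McIlvaine buffer at pH 3.3-4.3. Residual activity was then measured on 4 mM MUGal substrate stock at pH 4.8 with citrate buffer pH 4.3, over 30-180 min at 37° C. Reactions were quenched with sodium carbonate and read by fluorescence (Ex 355/Em 448 nm).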

[2] = HTP-analysis of yeast culture supernatants, no challenge (MUGal hydrolysis); details: activity of the variant/activity of Rd7BB (SEQ ID NO: 44)
How it was run: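 Activity read as 4-methylumbelliferyl α-D-galactopyranoside hydrolysis: fluorescence (355/448 nm) after sodium carbonate stop, following 30-180 min at 37° C with 2 mM MUGal stock at pH 4.6–4.8. Enzyme source is unchallenged culture supernatant of INVSc1 yeast expressing GLA variants, grown 66-84 h at 30° C.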

[3] = HTP-analysis of supernatants pretreated with base (MUGal hydrolysis); details: activity of the variant/activity of Rd7BB (SEQ ID NO: 44); challenge at pH 7.5
How it was run: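 GLA variants were secreted by transformed INVSc1 yeast grown 66-84 h at 30° C. Supernatants were exposed to neutral-to-basic buffers (pH 7.0-9.7) at 37° C for 1-18 h, then assayed with MUGal in acidic citrate/McIlvaine buffer, with fluorescence read after quenching.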

Molecule | Relative Activity of GLA Variants After Challenge at pH 3.5 [1] | Relative Activity of GLA Variants After No Challenge (NC) [2] | Relative Activity of GLA Variants After Challenge at pH 7.5 [3]
B1 | + (>0.5 to 1.5 relative activity over Rd7BB (SEQ ID NO: 44)) | + (>0.5 to 1.5 relative activity over Rd7BB (SEQ ID NO: 44)) | + (>0.5 to 1.5 relative activity over Rd7BB (SEQ ID NO: 44))
B2 | + (>0.5 to 1.5 relative activity over Rd7BB (SEQ ID NO: 44)) | + (>0.5 to 1.5 relative activity over Rd7BB (SEQ ID NO: 44)) | + (>0.5 to 1.5 relative activity over Rd7BB (SEQ ID NO: 44))
B3 | + (>0.5 to 1.5 relative activity over Rd7BB (SEQ ID NO: 44)) | + (>0.5 to 1.5 relative activity over Rd7BB (SEQ ID NO: 44)) | + (>0.5 to 1.5 relative activity over Rd7BB (SEQ ID NO: 44))
B4 | − (<0.5 relative activity to Rd7BB (SEQ ID NO: 44)) | − (<0.5 relative activity to Rd7BB (SEQ ID NO: 44)) | − (<0.5 relative activity to Rd7BB (SEQ ID NO: 44))
B5 | + (>0.5 to 1.5 relative activity over Rd7BB (SEQ ID NO: 44)) | + (>0.5 to 1.5 relative activity over Rd7BB (SEQ ID NO: 44)) | + (>0.5 to 1.5 relative activity over Rd7BB (SEQ ID NO: 44))
B6 | + (>0.5 to 1.5 relative activity over Rd7BB (SEQ ID NO: 44)) | + (>0.5 to 1.5 relative activity over Rd7BB (SEQ ID NO: 44)) | − (<0.5 relative activity to Rd7BB (SEQ ID NO: 44))
B7 | + (>0.5 to 1.5 relative activity over Rd7BB (SEQ ID NO: 44)) | + (>0.5 to 1.5 relative activity over Rd7BB (SEQ ID NO: 44)) | − (<0.5 relative activity to Rd7BB (SEQ ID NO: 44))
B8 | − (<0.5 relative activity to Rd7BB (SEQ ID NO: 44)) | − (<0.5 relative activity to Rd7BB (SEQ ID NO: 44)) | − (<0.5 relative activity to Rd7BB (SEQ ID NO: 44))
